# In the supplement of paper PMC12042874:
# ± gives the uncertainty stated by the source.
# Test: amyloid nucleation score (Sup35N fusion, yeast selection) (log enrichment); library NNK3; higher = more nucleation; inactive = no reads after selection
# How it was run: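 For the nucleation score, DiMSum gave the log enrichment of output over input reads, centred on the mode score of non-aggregating sequences. Psi-negative yeast expressing Sup35N fused to peptides of 20 random codons were induced with 100 μM copper sulfate for 24 hours and grown 7 days at 30°C on medium lacking adenine and uracil. Input and output plasmid inserts were Illumina-sequenced, and sequences with under 100 input reads were excluded.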
row,Substance,amyloid nucleation score
1,FYKLTLRSVRFLSFTYRIGA,inactive
2,RVCSW,inactive
3,YFCSCFRFSLNN,2.8 ± 0.062
4,FLLIILTLYASTCRAQYAFR,1.42 ± 0.15
5,NLCDVGRMLNCRRTSFGYMF,inactive
6,QDFYFISILACGYIWH,inactive
7,SLYMTVGESVPSMSASMYFG,inactive
8,VFLSWCAGSKGFSGVCRI,0.6 ± 0.2
9,VQRISTIMINV,inactive
10,FYMLMISSQYFVTRLAPYFP,-0.015 ± 0.87
11,LIPIW,inactive
12,VDHSLVWDHWTLRDIPCKTG,inactive
13,IEQRLRLKSLSYFFINDVKI,inactive
14,KEGNGMSFYN,inactive
15,FKCTVIGDTILPNTFSLWRF,inactive
16,NQALNILFYLNSSKSCVYPY,2.47 ± 0.063
17,YRFSRFKMRAVPTMILKLNV,-0.056 ± 0.35
18,IIAPSGVGWYWR,inactive
19,SNEHAVVYS,inactive
20,PRNMVFYVFCNVSLTHAMYS,0.845 ± 0.12
21,SARVRAVAMFPPPALT,inactive
22,SQLCITNSRW,inactive
23,INAGF,inactive
24,LKSST,inactive

row,Substance,amyloid nucleation score
1,GTNDDESRRRRREWD,inactive
2,YNSLRGR,inactive
3,SNGVRSRLLE,inactive
4,FGVGMALALCQRH,inactive
5,IWNKFGIIFYVVYYSIRTNL,inactive
6,IHGHC,inactive
7,FYFDRTSVIMRLFSMWNNFG,inactive
8,GKDVHMKGNSKRSVWYVPQG,inactive
9,DEFVKYQP,inactive
10,LVWDKVSVVWNSKEGVNVRI,0.256 ± 0.22
11,GFRECTRNFFL,0.361 ± 0.17
12,NLAMWMDSECLRVSN,inactive
13,SFRNKLELFQLVCMHNEPGC,inactive
14,MCQKQHQYQVTAIRTYMIRF,inactive
15,TLSYRMFINKPSGMMCEHFN,1.05 ± 0.11
16,CRVWEDDFLSNRSGLVRHLT,inactive
17,IVQYELTACDESAVKWIGMP,inactive
18,RKKTNCHINYFMDALFERLA,inactive
19,YWYTTCIWRVTSNCWVCISW,inactive
20,RVMAMYIGV,inactive
21,DLDECKFPINELSFHSSMGM,1.83 ± 0.091
22,ATPKPKGHY,inactive
23,AMSTDLLSVACL,inactive
24,IKVSECMSAYIVVFWYRMVV,inactive

row,Substance,amyloid nucleation score
1,RADSGGKCLLAELDGLSPYW,inactive
2,CIPIMRTPLGTPSN,inactive
3,VQTSHHNAVEICCMCLCQML,3.02 ± 0.065
4,YMSYRSLMNSLTSIL,inactive
5,QKLVMTYPVIVHNMVNLERY,1.13 ± 0.074
6,YAYEIRRLT,inactive
7,EATPSSIQAQ,inactive
8,LIASGASIVFSRTESVRCNT,inactive
9,ISNGVNPGVFDAVSWLDWAV,inactive
10,FFARSHAVIINFFCTH,2.72 ± 0.066
11,SASCKYGVCLSDLLVSDWHY,inactive
12,AFFGCCYGRDLVEHW,1.49 ± 0.1
13,IDTAFRSYCYDFDLANDLMG,inactive
14,PSVPSNHLDCYLTWGT,inactive
15,LMVMGVSSCLTFAIDILRNM,1.13 ± 0.16
16,PRYRSLWFAKHMLAVLGSKW,inactive
17,RLSLVFRHIAFTS,inactive
18,GCVMVKSSLMFSLLR,-0.883 ± 1.2
19,EILISNCEVDRRLYRGGN,-0.618 ± 0.98
20,IMLGRANSIYMH,inactive
21,KASWRMLC,inactive
22,QGNCVNRIC,inactive
23,FTLPKHFTRIL,inactive
24,MTVHDIHYLS,inactive

row,Substance,amyloid nucleation score
1,HRMCVRRFRVFRESVEEVHF,inactive
2,ELRLMGFRGALDACLSLHPI,inactive
3,LPGSDRQFPREAVHYSRMRG,0.714 ± 0.32
4,LVLYCF,inactive
5,SYYITLHWIVASGSYSADNT,0.454 ± 0.14
6,HFIKGGLHCVS,inactive
7,SGMDSKRKDSCLLCVHFHVS,inactive
8,RACHFQVIMCMICALCGFAS,1.91 ± 0.079
9,RRQLLVGIP,inactive
10,FYTFYSHLNELLHL,-0.009 ± 0.66
11,IFGWLVDYLSFRVYKEDKGV,inactive
12,SLTGRWSTVGRSMGLNTRGG,inactive
13,FLVIPWDEEKCRLSDLFASN,inactive
14,FPKLAIVFMHSSLWYFSYWV,inactive
15,YEARSWE,inactive
16,CAHKSGQACKHGVF,0.533 ± 0.4
17,VPGQYWFIDGMTFGNDDTRS,inactive
18,KGRMQVEWDFGISAYCGMML,-0.431 ± 1.1
19,VSYWNEHHSEIVPLGCF,inactive
20,VGIALASIK,inactive
21,LLWYKLSELR,inactive
22,QIQGAGHGM,0.534 ± 0.21
23,SYEHFRWLYHVFKVARFFFL,inactive
24,CVVYLWWLVSASMLCSNWFG,inactive

row,Substance,amyloid nucleation score
1,KYWLMVWRFNYCMTYNGGLE,inactive
2,YSINTFLICYYMVRPY,2.36 ± 0.065
3,LNTDESWGFMCLTKFE,inactive
4,YQCSASFYRTNVGPSTGHQL,1.13 ± 0.11
5,TMKIMFVEPWKCRAAFQL,inactive
6,ASCSVVEKISFTDPGIQWIR,-0.032 ± 1.1
7,FGRQVSDGVASFMSNTSLYR,inactive
8,VYCSSVSCLEVWCGPLHTVR,1.53 ± 0.081
9,ASHHVDSTYDTYYWQHKAKK,inactive
10,ECCGDLGAVWQVVRNCGKVL,inactive
11,TCISFYETVAL,inactive
12,VFHRSSLNSSRAGWH,inactive
13,VTSVHTALFSLQNDWNNKGD,inactive
14,MSPLGTCYRILKLDYCKYAV,-0.328 ± 0.55
15,KRVRVRFASAMHGLMSHPDT,inactive
16,RCLLYTAY,inactive
17,DRDGQPAWHLS,inactive
18,AGTKSLRNYGWCLYDGGFYH,inactive
19,FNWRLSSITDSSVYLPSWNL,inactive
20,FSYVPQAILYLCLYYNVVHT,inactive
21,TAIVIMTYYTIRGFRTIGMW,-0.174 ± 0.22
22,PNRQDYIVTYLGIPNFLSTW,inactive
23,IVHVSLWKMSISPIWEWSMI,0.006 ± 0.37
24,NNLEFQFNWRLEVGFC,inactive

row,Substance,amyloid nucleation score
1,FVGVYKMGFASCSMSGSGWV,inactive
2,NVYYSPFCWCMPDMFFDSIC,2.88 ± 0.08
3,GLDGTGHKYDGQFARRWNLR,inactive
4,AVENSQFW,0.204 ± 0.38
5,FLCSTVIISNVLMRPAYYVR,inactive
6,TGVVTMF,inactive
7,FLTRIHFLCTCVRRNG,1.37 ± 0.1
8,SVYSITSCMHGVAQSEVMFD,1.1 ± 0.16
9,IATIFGVHFRQNDDWIVALY,inactive
10,LFYKREALMRGISSFKELSN,inactive
11,SLGQLYDLGSRW,-0.805 ± 1.7
12,VFAFTKMESRFLLGLRVDEY,0.729 ± 0.15
13,WNLFDHRIGNKQRNGYDVYE,inactive
14,DFTDYMPIMYTLHRVVIQMY,inactive
15,SLSTSNLNIKLSPCYSFNRH,0.678 ± 0.31
16,SQFTIVVTAVLVT,inactive
17,AITYTTSLKVSFVSKGVSGA,0.614 ± 0.32
18,VYCFV,inactive
19,YREREAAR,inactive
20,CMGMCELFNTWCYEGKTPIS,inactive
21,MIIPSTVMQSLSTCILERAS,inactive
22,HRSINCWAYVRL,inactive
23,VARNGDLF,inactive
24,SLYRWYVQMRGIR,inactive

row,Substance,amyloid nucleation score
1,VSWNWATGLRFRPLSCYGLV,inactive
2,LLSLAYVMRYI,1.38 ± 0.068
3,CYLMYLSEILAYHVATWQAT,inactive
4,WWAISTLGMGNQLFLGVPRY,inactive
5,ATTADLDRCSLFPKLRILRG,inactive
6,SSIGFLRSLGHQRPRSVSLP,inactive
7,RPMKLRCASGWNVDTQFFDT,inactive
8,FESLHSCV,inactive
9,IRMHGWPYRLVREICFNGFF,0.028 ± 0.5
10,VIMFVAIGWLLR,inactive
11,QAGLSCD,inactive
12,SFTIIMALCSV,inactive
13,PGYSCIRDIQITR,inactive
14,GGLVSCLSAARIGHHGASLE,inactive
15,IFYVWQLLYYGEQRGGS,1.63 ± 0.088
16,DGEGN,inactive
17,LFCIY,inactive
18,LWVYAPFDSK,inactive
